Values quoted from earlier work in paper PMC3347567.

Target: PEDF-R (Homo sapiens) (UniProt Q96AD5)
Chain of UniProt Q96AD5 (Q96AD5 whole entry): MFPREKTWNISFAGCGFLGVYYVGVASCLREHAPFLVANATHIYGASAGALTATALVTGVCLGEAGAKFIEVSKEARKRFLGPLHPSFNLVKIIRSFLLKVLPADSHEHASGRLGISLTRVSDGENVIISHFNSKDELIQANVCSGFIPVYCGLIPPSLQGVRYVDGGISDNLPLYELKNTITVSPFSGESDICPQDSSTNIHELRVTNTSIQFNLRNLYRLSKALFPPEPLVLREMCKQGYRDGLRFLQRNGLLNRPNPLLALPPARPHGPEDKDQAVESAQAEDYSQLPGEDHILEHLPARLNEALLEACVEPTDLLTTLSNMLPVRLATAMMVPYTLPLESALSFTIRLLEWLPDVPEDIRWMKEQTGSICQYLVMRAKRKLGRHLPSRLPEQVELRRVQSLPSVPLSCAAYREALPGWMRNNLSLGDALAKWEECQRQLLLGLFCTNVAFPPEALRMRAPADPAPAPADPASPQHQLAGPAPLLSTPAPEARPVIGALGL

PEDF (from UniProt P36955)
Kd: 3.03 nM
